Results taken from article PMC3985669.

Legend:
Hfq [1] = biological target: Hfq (UniProt P0A6X3); test: EMSA
Hfq [2] = biological target: Hfq (UniProt P0A6X3); test: footprinting

Sequence of Hfq (P0A6X3 2-102): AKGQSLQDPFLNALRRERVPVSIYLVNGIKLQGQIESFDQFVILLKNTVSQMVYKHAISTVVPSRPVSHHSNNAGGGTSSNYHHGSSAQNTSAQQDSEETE

Row | Sequence | binding (Hfq [1]) | binding (Hfq [2])
1 | GGAUGUAAUCCAUUAGUUUUAUAUUUUACCCAUUUAGGGCUGAUUUAUUACUACACACAGCAGUGCAACAUCUGUCAGUACUUCUGGUGCUUCUAUUUUAGAGGCAGCUGUCAGGUGUGCGAUCAAUAAAAAAAGCGGGGUUUCAUCAUGUUUAAUGAAGUCCAUAGUAUUCAUGGUCAUACAUUAUUGUUGAUCACUAAAUCUUCUUUGCAGGCG [RydC + csgD mRNA215 duplex] | binds | 
2 | GGAUGUAAUCCAUUAGUUUUAUAUUUUACCCAUUUAGGGCUGAUUUAUUACUACACACAGCAGUGCAACAUCUGUCAGUACUUCUGGUGCUUCUAUUUUAGAGGCAGCUGUCAGGUGUGCGAUCAAUAAAAAAAGCGGGGUUUCAUCAUGUUUAAUGAAGUCCAUAGUAUUCAUGGUCAUACAUUAUUGUUGAUCACUAAAUCUUCUUUGCAGGCG [csgD mRNA215] | binds | binds
